Earlier results on 16 molecules are cited in patent publication US20260265800A1, “NEW FUCOSYLTRANSFERASES FOR IN VIVO SYNTHESIS OF LNFP-III” (DSM IP Assets B.V., priority 2022, published 2026).

Residue numbers refer to the chain shown, from its start.

First the molecules themselves.
B1: PglpA_70UTR: promoter sequence, SEQ ID NO: 26 (nucleic acid)
DNA: GAAAACATTCATAAATTAAATGTGAATTGCCGCACACATTATTAAATAAGATTTACAAAATGTTCAAAATGACGCATGAAATCACGTTTCACTTTCGAATTATGAGCGAATATGCGCGATGCCTACAAGCATCGTGGAGGTCCGTGACTTTCACGCATACAACAAACATTAACCAAGGAGGAAACAGCT
B2: PglpA_16UTR: promoter sequence, SEQ ID NO: 36 (nucleic acid)
DNA: B1 DNA
B3: PglpT_70UTR: promoter sequence, SEQ ID NO: 27 (nucleic acid)
DNA: CCATTTAGCCATAGTAAAAACATGAATTGTTTGATTTCGCGCATATTCGCTCATAATTCGAAAGTGAAACGTGATTTCATGCGTCATTTTGAACATTTTGTAAATCTTATTTAATAATGTGTGCGGCAATTCACATTTAATTTATGAATGTTTTCTTAACATCGCGGCATGCCTACAAGCATCGTGGAGGTCCGTGACTTTCACGCATACAACAAACATTAACCAAGGAGGAAACAGCT
B4: PmglB_70UTR_SD9: promoter sequence, SEQ ID NO: 20 (nucleic acid)
DNA: TGCGTCGCCATTCTGTCGCAACACGCCAGAATGCGGCGGCGATCACTAACTCAACAAATCAGGCGATGTAACCGCTTTCAATCTGTGAGTGATTTCACAGTATCTTAACAATGTGATAGCTATGATTGCACCGTGCCTACAAGCATCGTGGAGGTCCGTGACTTTCACGCATACAACAAACATTAACCAAAGGAAAAACAGCT
B5: PmglB_70UTR_SD5: promoter sequence, SEQ ID NO: 22 (nucleic acid)
DNA: B4 DNA with A191C, G192C, A195G
B6: PmglB_70UTR_SD4: promoter sequence, SEQ ID NO: 21 (nucleic acid)
DNA: B4 DNA with A191C, G192T, G193A, A194G, A195G
B7: PmglB_70UTR: promoter sequence, SEQ ID NO: 25 (nucleic acid)
DNA: B4 DNA with A191G, G193A, A194G, A195G
B8: PmglB_70UTR_SD7: promoter sequence, SEQ ID NO: 24 (nucleic acid)
DNA: B4 DNA with A191G, G192A, A194C
B9: PglpF_SD4: promoter sequence, SEQ ID NO: 23 (nucleic acid)
DNA: ATGCGCAAATGCGGCACGCCTTGCAGATTACGGTTTGCCACACTTTTCATCCTTCTCCTGGTGACATAATCCACATCAATCGAAAATGTTAATAAATTTGTTGCGCGAATGATCTAACAAACATGCATCATGTACAATCAGATGGAATAAATGGCGCGATAACGCTCATTTTATGACGAGGCACACACATTTTAAGTTCGATATTTCTCGTTTTTGCTCGTTAACGATAAGTTTACAGCATGCCTACAAGCATCGTGGAGGTCCGTGACTTTCACGCATACAACAAACATTAACCAACTAGGAAACAGCT
B10: PglpF_SD5: promoter sequence, SEQ ID NO: 30 (nucleic acid)
DNA: B9 DNA with T299C, A300G, G301A
B11: PglpF_SD6: promoter sequence, SEQ ID NO: 35 (nucleic acid)
DNA: B9 DNA with C298G, T299A, A300G, G301C, G302T
B12: PglpF_SD8: promoter sequence, SEQ ID NO: 31 (nucleic acid)
DNA: B9 DNA with C298G, T299A, A300G, G301A, G302A
B13: PglpF_SD9: promoter sequence, SEQ ID NO: 33 (nucleic acid)
DNA: B9 DNA with C298A, T299G, A300G, G301A, G302A
B14: PglpF_SD10: promoter sequence, SEQ ID NO: 29 (nucleic acid)
DNA: B9 DNA with A300G, G301A
B15: PmglB_16UTR: promoter sequence, SEQ ID NO: 32 (nucleic acid)
DNA: TGCGTCGCCATTCTGTCGCAACACGCCAGAATGCGGCGGCGATCACTAACTCAACAAATCAGGCGATGTAACCGCTTTCAATCTGTGAGTGATTTCACAGTATCTTAACAATGTGATAGCTATGATTGCACCGTTTTAACGTTGTAACCCGTATGTAACAGTGAATAATCACTTTTGCCGAGGTAACAGCGTCATAACAACAATTAAAGCCGTTTTCTGGAGCGTTACCGGGCATGGAAGAACGAATTTTAAAAAGTGAGCTTCGGCGTTCAGTAACACTTCATTAACTCTACTGCCCCGCCGAGCATTTATCTCAAGCACTACCCTGCATAAGCAAGGAGGAAACAGCT
B16: PglpF_SD7: promoter sequence, SEQ ID NO: 34 (nucleic acid)
DNA: GCGGCACGCCTTGCAGATTACGGTTTGCCACACTTTTCATCCTTCTCCTGGTGACATAATCCACATCAATCGAAAATGTTAATAAATTTGTTGCGCGAATGATCTAACAAACATGCATCATGTACAATCAGATGGAATAAATGGCGCGATAACGCTCATTTTATGACGAGGCACACACATTTTAAGTTCGATATTTCTCGTTTTTGCTCGTTAACGATAAGTTTACAGCATGCCTACAAGCATCGTGGAGGTCCGTGACTTTCACGCATACAACAAACATTAACCAAGAGCAAAACAGCT

For one data set, the system named is β-galactosidase activity. The note with it: LacZ assay, PglpF as positive reference; a range indicates results from multiple assays; cited from earlier work.
With B1, the “% Activity relative to PglpF” value is recorded as 102-179%.

B2: the “% Activity relative to PglpF” value is reported as 38-64%.

B3: the “% Activity relative to PglpF” value is 102-240%.

As to B4, the “% Activity relative to PglpF” value is 180-226%.

For B5, the “% Activity relative to PglpF” value is recorded as 146-152%.

Regarding B6, the “% Activity relative to PglpF” value is 153%-353%.

Consider B7, for which the “% Activity relative to PglpF” value is recorded as 124-234%.

For B8, the “% Activity relative to PglpF” value is recorded as 127-173%.

For B9, the “% Activity relative to PglpF” value is on record as 140-161%.

Turning to B10, the “% Activity relative to PglpF” value is listed as 82-91%.

As to B11, the “% Activity relative to PglpF” value is on record as 46-47%.

B12: the “% Activity relative to PglpF” value is 81-82%.

B13: the “% Activity relative to PglpF” value is given as 73-93%.

Consider B14, for which the “% Activity relative to PglpF” value is given as 88-96%.

Take B15: the “% Activity relative to PglpF” value is recorded as 78-171%.

Consider B16, for which the “% Activity relative to PglpF” value is given as 47-57%.

The same data set, now with this note: LacZ assay; cited from earlier work.
On to B1, for which the Strength result was “high (A regulatory element with an activity above 10,000 MU is considered strong)”.

As to B2, the Strength result is given as “middle (what is in between has intermediate strength)”.

Regarding B3, the Strength entry was “high (A regulatory element with an activity above 10,000 MU is considered strong)”.

For the molecule B4, the Strength result is given as “high (A regulatory element with an activity above 10,000 MU is considered strong)”.

B5: the Strength result is listed as “high (A regulatory element with an activity above 10,000 MU is considered strong)”.

As to B6, the Strength entry is on record as “high (A regulatory element with an activity above 10,000 MU is considered strong)”.

For B7, the Strength result was “high (A regulatory element with an activity above 10,000 MU is considered strong)”.

On to B8, for which the Strength result is “high (A regulatory element with an activity above 10,000 MU is considered strong)”.

B9: the Strength result is listed as “high (A regulatory element with an activity above 10,000 MU is considered strong)”.

Turning to B10, the Strength entry is recorded as “high (A regulatory element with an activity above 10,000 MU is considered strong)”.

In the case of B11, the Strength result is “middle (what is in between has intermediate strength)”.

Regarding B12, the Strength result is “high (A regulatory element with an activity above 10,000 MU is considered strong)”.

B13: the Strength entry is recorded as “middle (what is in between has intermediate strength)”.

Regarding B14, the Strength entry is “high (A regulatory element with an activity above 10,000 MU is considered strong)”.

Take B15: the Strength entry is reported as “high (A regulatory element with an activity above 10,000 MU is considered strong)”.

As for B16, the Strength entry is recorded as “middle (what is in between has intermediate strength)”.
